Results published in US20150266967A1.

Molecular target: recombinant Fcγ-receptor 3a protein, high affinity V158 allotype (UniProt P08637)
Experiment: surface plasmon resonance, KD from ka and kd

recombinant Fcγ-receptor 3a protein, high affinity V158 allotype, sequence (P08637 17-208 F176V): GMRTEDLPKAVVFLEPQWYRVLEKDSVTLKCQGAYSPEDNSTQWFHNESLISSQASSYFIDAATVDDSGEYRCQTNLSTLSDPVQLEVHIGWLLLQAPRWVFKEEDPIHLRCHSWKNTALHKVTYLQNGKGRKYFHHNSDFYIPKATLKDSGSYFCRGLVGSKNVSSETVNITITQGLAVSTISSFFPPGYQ

Kd: 379 nM
Substance: non Fc-engineered IgG1 reference antibody
